Results: patent US5972698
Read-outs that look alike come from different tables or passages of the source. Each block holds one substance with its values, some of them ahead of it.

Columns and labels:
[1] = target: human tryptase (purified from human lung tissue) (human) (UniProt Q15661); experiment: enzyme inhibition, steady state velocities on Tos-Gly-Pro-Arg-pNA, tight binding fit; Ki for the inhibition of two of the four subunits of the tryptase-tetramer
[2] = target: human tryptase (purified from human lung tissue) (human) (UniProt Q15661)
[3] = target: human cathepsin G (human) (UniProt P08311); experiment: enzyme inhibition at 0.2 µM inhibitor, Table 5
human thrombin (human) [4] = target: human thrombin (human) (UniProt P00734); experiment: enzyme inhibition at 0.2 µM inhibitor, Table 5
[5] = target: porcine pancreatic elastase (porcine) (UniProt P00772); experiment: enzyme inhibition at 0.2 µM inhibitor, Table 5
[6] = target: porcine pancreatic kallikrein (porcine) (UniProt P00752); experiment: enzyme inhibition at 0.2 µM inhibitor, Table 5
human plasmin (human) [7] = target: human plasmin (human) (UniProt P00747); experiment: enzyme inhibition at 0.2 µM inhibitor, Table 5
[8] = target: human neutrophil elastase (human) (UniProt P08246); experiment: enzyme inhibition at 0.2 µM inhibitor, Table 5
human urokinase (human) = human urokinase (human) (UniProt P00749); experiment: enzyme inhibition at 0.2 µM inhibitor, Table 5
[9] = target: human plasma kallikrein (human) (UniProt P03952); experiment: enzyme inhibition at 0.2 µM inhibitor, Table 5
human factor Xa (human) = human factor Xa (human) (UniProt P00742); experiment: enzyme inhibition at 0.2 µM inhibitor, Table 5
bovine trypsin (bovine) [10] = target: bovine trypsin (bovine) (UniProt P00760); experiment: enzyme inhibition, steady state velocities on Tos-Gly-Pro-Arg-pNA, tight binding fit
[11] = target: human tryptase (purified from human lung tissue) (human) (UniProt Q15661); experiment: as above
[12] = target: bovine chymotrypsin (bovine) (UniProt P00766); experiment: enzyme inhibition, steady state velocities on Suc-Val-Pro-Phe-pNA, tight binding fit
[13] = target: human tryptase (purified from human lung tissue) (human) (UniProt Q15661); remark: listed apart in the source
[14] = target: human cathepsin G (human) (UniProt P08311)
human thrombin (human) [15] = target: human thrombin (human) (UniProt P00734)
[16] = target: porcine pancreatic kallikrein (porcine) (UniProt P00752)
human plasmin (human) [17] = target: human plasmin (human) (UniProt P00747)
[18] = target: human tryptase (purified from human lung tissue) (human) (UniProt Q15661); remark: listed apart in the source
[19] = target: human tryptase (purified from human lung tissue) (human) (UniProt Q15661); experiment: enzyme inhibition, tos-Gly-Pro-Arg-pNa as substrate
[20] = target: human tryptase (purified from human lung tissue) (human) (UniProt Q15661); remark: listed apart in the source
bovine trypsin (bovine) [21] = target: bovine trypsin (bovine) (UniProt P00760)
Target sequence in this assay (P00760 24-246): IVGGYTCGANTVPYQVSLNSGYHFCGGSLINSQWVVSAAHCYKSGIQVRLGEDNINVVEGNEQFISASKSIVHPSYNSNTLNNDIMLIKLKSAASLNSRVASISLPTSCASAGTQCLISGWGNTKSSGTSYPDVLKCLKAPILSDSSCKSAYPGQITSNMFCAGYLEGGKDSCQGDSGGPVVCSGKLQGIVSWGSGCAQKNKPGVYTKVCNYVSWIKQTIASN

Chain of recombinant leech-derived tryptase inhibitor form C, secreted by Saccharomyces cerevisiae (strain S-78 with pRM 9.1.4) (chain): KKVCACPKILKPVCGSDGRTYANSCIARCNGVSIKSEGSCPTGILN

Ki [1]: 1.4 nM | tryptase-induced breakdown of vasoactive intestinal peptide (VIP), reversed phase HPLC [2]: 66% | Ki relative to the complex with tryptase (times higher) [3]: > 200 times | Ki relative to the complex with tryptase (times higher) (human thrombin (human) [4]): > 200 times | Ki relative to the complex with tryptase (times higher) [5]: > 200 times | Ki relative to the complex with tryptase (times higher) [6]: > 200 times | Ki relative to the complex with tryptase (times higher) (human plasmin (human) [7]): > 200 times | Ki relative to the complex with tryptase (times higher) [8]: > 200 times | Ki relative to the complex with tryptase (times higher) (human urokinase (human)): > 200 times | Ki relative to the complex with tryptase (times higher) [9]: > 200 times | Ki relative to the complex with tryptase (times higher) (human factor Xa (human)): > 200 times | Ki (bovine trypsin (bovine) [10]): 0.9 nM | Ki [nM], first of the two columns so headed (bovine trypsin (bovine) [10]): 4.7 nM | Ki [nM], first of the two columns so headed [11]: 1.8 nM | Ki [12]: 20 nM | Ki [nM], first of the two columns so headed [12]: 137 nM | tryptase-induced growth of HaCaT keratinocytes (3H-thymidine incorporation) [13]: 99% | amidolytic activity of cathepsin G on Suc-Val-Pro-Phe-pNA, inhibitor at 0.2 µM [14]: 11% | amidolytic activity of thrombin on Tos-Gly-Pro-Arg-pNA, inhibitor at 0.2 µM (human thrombin (human) [15]): 12% | amidolytic activity of tissue kallikrein on D-Val-Leu-Arg-pNA, inhibitor at 0.2 µM [16]: 14% | amidolytic activity of plasmin on Tos-Gly-Pro-Lys-pNA, inhibitor at 0.2 µM (human plasmin (human) [17]): 30% | amidolytic activity of tryptase on tos-Gly-Pro-Arg-pNa [18]: 50%
Substance: leech-derived tryptase inhibitor (isolated from extract of the medical leech Hirudo medicinalis)

Ki [19]: 1.9 nM | amidolytic activity of tryptase on tos-Gly-Pro-Arg-pNa [20]: 50% | trypsin inhibition assay (residual trypsin activity on Tos-Gly-Pro-Arg-p-NA) (bovine trypsin (bovine) [21]): 60%
Substance: recombinant leech-derived tryptase inhibitor form C, secreted by Saccharomyces cerevisiae (strain S-78 with pRM 9.1.4)
